Experimental data reported in PMC9779004, “Structural, Thermodynamic and Enzymatic Characterization of N,N-Diacetylchitobiose Deacetylase from Pyrococcus chitonophagus” (International Journal of Molecular Sciences, 2022).

Assays:
[1] = target: N,N-diacetylchitobiose deacetylase from Pyrococcus chitonophagus (Pyrococcus chitonophagus DSM 10152); assay: SEC-SAXS; stock solution 4.7 mg/mL, Superdex 200 Increase 5/150 GL, injected at 4 °C, 0.35 mL/min; main peak fitted with the crystallographic hexamer, chi^2 = 1.2
[2] = target: N,N-diacetylchitobiose deacetylase from Pyrococcus chitonophagus (Pyrococcus chitonophagus DSM 10152); assay: crystal structure; three crystal forms: P2(1) with (GlcNAc)2 (two hexamers in the asymmetric unit), P3(2)21 unliganded (half a hexamer, other half by the crystallographic two-fold axis), P2(1)2(1)2(1) (one hexamer); data at 100 K
[3] = target: N,N-diacetylchitobiose deacetylase from Pyrococcus chitonophagus (Pyrococcus chitonophagus DSM 10152); assay: SAXS; batch mode, dilution series 0.2-3.48 mg/mL in Buffer A (20 mM TRIS pH 7.4, 200 mM NaCl), room temperature; curves fitted with the crystallographic hexamer and a 'dodecameric' model (CRYSOL, OLIGOMER)
[4] = target: T1, Pch-Dac (N,N-diacetylchitobiose deacetylase) (Thermococcus chitonophagus, UniProt A0A160VQZ8); assay: ITC total heat (Happ) and 1H NMR; assay type: biochemical; conditions: ITC pH 6.5, 75 °C; NMR HEPES pH 7.5; non-reducing-end deacetylation
T1 construct: gene CHITON_0574; full gene in pET151D-TOPO, N-terminal 6xHis-TEV tag cut, expressed in E. coli BL21-Magic
T1 sequence (A0A160VQZ8 1-267): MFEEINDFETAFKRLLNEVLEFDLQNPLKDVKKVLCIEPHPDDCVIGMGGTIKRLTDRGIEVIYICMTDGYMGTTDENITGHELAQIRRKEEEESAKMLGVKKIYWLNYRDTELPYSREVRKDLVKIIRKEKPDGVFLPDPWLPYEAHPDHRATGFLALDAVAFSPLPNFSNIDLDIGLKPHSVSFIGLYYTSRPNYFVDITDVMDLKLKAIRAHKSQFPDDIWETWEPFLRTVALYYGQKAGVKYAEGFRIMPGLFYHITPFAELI

stoichiometry N [1]	stoichiometry N [2]	percent of the scattering accounted for by the hexameric model [3]	stoichiometry N [3]	Molecule	ITC total heat (Happ) and 1H NMR [4]
6	6	84 to 87%	6	N,N-diacetylchitobiose deacetylase from Pyrococcus chitonophagus (enzyme)	
				CC(=O)N[C@H]1[C@H](O[C@H]2[C@H](O)[C@@H](N)C(O)O[C@@H]2CO)O[C@H](CO)[C@@H](O)[C@@H]1O (stereo partly drawn) [GlcNAc-GlcN, 1,4-β-D-acetyl glucosaminyl-D-N-glucosamine]	Reaction was observed only in the case of GlcNAc-GlcN
